Inhibition of Aβ aggregation, Congo red assay, inhibition of Aβ aggregation, thioflavin-T fluorescence assay and protection of SHSY-5Y neuronal cells from Aβ-induced death, MTT assay (% more surviving cells than control) data for two substances are collected here from US20050009749A1.

This assay has as its target β amyloid (Aβ) 1-40 peptide. Kind of assay: cell-based or functional assay.

β amyloid (Aβ) 1-40 peptide, sequence (peptide, as listed by the source): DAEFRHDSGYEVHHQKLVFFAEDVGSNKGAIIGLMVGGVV

In turn, “AABA protein (β amyloid aggregation blocking activity protein) from Streptomyces sp. KK565” registered an inhibition of Aβ aggregation, Congo red assay of 93.2 % inhibition and an inhibition of Aβ aggregation, thioflavin-T fluorescence assay of 97 % inhibition.

In turn, “AABA protein (β amyloid aggregation blocking activity protein) from Streptomyces sp. KK565 (enzyme)” returned a protection of SHSY-5Y neuronal cells from Aβ-induced death, MTT assay (% more surviving cells than control) of 20.
